Source: patent publication US20200362049A1 (BLACK BELT THERAPEUTICS, published 2020)

Columns and labels:
Human CD38 on cells [1] = target: T1, Human CD38 on cells (human, UniProt P28907 1-300); assay: cell-based or functional assay
Human CD38 on cells [2] = target: T1, Human CD38 on cells; assay: cell-based or functional assay; remark: listed apart in the source

ADCC, target Daudi cells: EC50 ug/ml DARA (Human CD38 on cells [1]): 0.0139 µg/mL
CDC, 10% complement, target Daudi cells: EC50 ug/ml DARA (experiment 10) (Human CD38 on cells [2]): 0.11 µg/mL
CDC, 10% complement, target Daudi cells: EC50 ug/ml DARA (experiment 11) (Human CD38 on cells [2]): 0.07 µg/mL
B1: Daratumumab (antibody, human IgG1, kappa, V domains shown)
VH: EVQLLESGGGLVQPGGSLRLSCAVSGFTFNSFAMSWVRQAPGKGLEWVSAISGSGGGTYYADSVKGRFTISRDNSKNTLYLQMNSLRAEDTAVYFCAKDKILWFGEPVFDYWGQGTLVTVSS
VL: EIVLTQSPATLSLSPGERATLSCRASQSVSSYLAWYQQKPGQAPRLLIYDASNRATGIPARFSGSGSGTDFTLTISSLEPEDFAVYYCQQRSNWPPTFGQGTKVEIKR
